The target of assay [1] is T1, recombinant MBP-EDIII of DENV1 (Dengue virus 1, strain Guiana/FGA89/1989, strain).
T1 construct: also called DENV1 EDIII; envelope protein domain III of DENV1; not shown: MBP, N-terminal, kept
The assay is described as follows: SPR. The settings on record: both partners purified.

Assay [2] has as its target T2, recombinant MBP-EDIII of DENV3 (Dengue virus 3, strain …, UniProt P27915, strain).
T2 construct: also called DENV3 EDIII; envelope protein domain III of DENV3; not shown: MBP, N-terminal, kept
The assay is described as follows: SPR. The settings on record: both partners purified.

As a reminder, the Kd is a measure of binding affinity in units of concentration. The koff is a measure of how fast the partners let go of each other. As usually defined, the kon is the rate constant with which the complex forms.

B1: 1A1D-2 Fab WT (Fab, V domains shown)
VH: EVQLQQSGAELVKPGASVKLSCTASGFNIKDTYMHWVKQRPEQGLEWIGRIDPANGYSKYDPKFQGKATITADTSSNAAYLQLSSLTSEDTAVYFCARDYEGFAYWGQGTLVTVSS
VL: DIVLTQSPASLAVSLGQRATISCRASESVVRYGNSFMHWYQQKPGQPPKLLIYRASSLESGIPTRFSGSGSRTDFTLTINPVEADDVATYYCQQTNVDPWAFGGGTKLEIK
notes: also called 1A1D-2 WT
For the molecule B1, in assay [1], the Kd turned out to be 216 nM, the koff is 0.00755 s⁻¹ and the kon was 34900 M⁻¹ s⁻¹. Moreover, in assay [2], the Kd was determined as 91 nM, the koff turned out to be 0.00792 s⁻¹ and the kon came out at 87000 M⁻¹ s⁻¹.

B2: 1A1D-2 Fab A54E-Y105R double mutant (Fab, V domains shown)
VH: EVQLQQSGAELVKPGASVKLSCTASGFNIKDTYMHWVKQRPEQGLEWIGRIDPENGYSKYDPKFQGKATITADTSSNAAYLQLSSLTSEDTAVYFCARDYEGFARWGQGTLVTVSS
VL: DIVLTQSPASLAVSLGQRATISCRASESVVRYGNSFMHWYQQKPGQPPKLLIYRASSLESGIPTRFSGSGSRTDFTLTINPVEADDVATYYCQQTNVDPWAFGGGTKLEIK
On to B2, for which, in assay [1], the Kd is 27.4 nM, the koff amounted to 0.0012 s⁻¹ and the kon stood at 43900 M⁻¹ s⁻¹. In addition, in assay [2], the Kd was 7.11 nM, the koff is 0.00158 s⁻¹ and the kon is 222000 M⁻¹ s⁻¹.

B3: 1A1D-2 Fab A54E.H (Fab, V domains shown)
VH: EVQLQQSGAELVKPGASVKLSCTASGFNIKDTYMHWVKQRPEQGLEWIGRIDPENGYSKYDPKFQGKATITADTSSNAAYLQLSSLTSEDTAVYFCARDYEGFAYWGQGTLVTVSS
VL: DIVLTQSPASLAVSLGQRATISCRASESVVRYGNSFMHWYQQKPGQPPKLLIYRASSLESGIPTRFSGSGSRTDFTLTINPVEADDVATYYCQQTNVDPWAFGGGTKLEIK
On to B3, for which, in assay [1], the Kd was 140 nM, the off-rate (koff) stood at 0.00617 s⁻¹ and the kon amounted to 44300 M⁻¹ s⁻¹. For the same molecule, in assay [2], the Kd came out at 10.3 nM, the koff is 0.00364 s⁻¹ and the kon came to 354000 M⁻¹ s⁻¹.

B4: 1A1D-2 Fab Y105R.H (Fab, V domains shown)
VH: EVQLQQSGAELVKPGASVKLSCTASGFNIKDTYMHWVKQRPEQGLEWIGRIDPANGYSKYDPKFQGKATITADTSSNAAYLQLSSLTSEDTAVYFCARDYEGFARWGQGTLVTVSS
VL: DIVLTQSPASLAVSLGQRATISCRASESVVRYGNSFMHWYQQKPGQPPKLLIYRASSLESGIPTRFSGSGSRTDFTLTINPVEADDVATYYCQQTNVDPWAFGGGTKLEIK
For the molecule B4, in assay [1], the Kd came out at 42.6 nM, the dissociation rate constant (koff) is 0.00185 s⁻¹ and the kon is 43500 M⁻¹ s⁻¹. In assay [2], the Kd amounted to 49.2 nM, the off-rate constant (koff) was found to be 0.00419 s⁻¹ and the kon is 85200 M⁻¹ s⁻¹.

These data come from publication PMC9027083 (International Journal of Molecular Sciences, 2022).
